The Human Domainome abundance scans (Beltran et al. 2025)

B1: Transcription factor SOX-4, residues 60 to 127; numbered along this chain, Q06945 (parent)
chain: KRPMNAFMVWSQIERRKIMEQSPDMHNAEISKRLGKRWKLLKDSDKIPFIREAERLRLKHMADYPDYK

Variants of: B1
Experiment: abundance fitness (aPCA) (normalised: wild type 0, dead -1); higher = more abundant; growth selection in yeast, the domain comes from the species named
Settings: Homo sapiens

Abundance fitness, by site and new letter:
D24: T -0.206 | K -0.141 | A -0.239 | C -0.335 | S -0.15 | P -0.564 | W -0.188 | R -0.307 | Q -0.114 | F -0.134
R33: Y -0.218 | Q 0.332 | K 0.048 | N 0.126 | W -0.089 | T 0.085 | L 0.192 | I -0.051 | E 0.316 | D 0.483 | S -0.1 | V 0.339 | P -0.922 | C 0.083 | A 0.121 | G -0.283
I13: N -0.164 | L -0.127 | M -0.228 | V -0.186 | T -0.235 | G -0.222 | K -0.195 | H 0.027 | E -0.163 | F -0.21 | R -0.401 | W -0.531 | Y -0.456 | P -0.484 | Q -0.12
I18: Y -0.285 | C -0.278 | E -0.63 | S -0.665 | A -0.484 | H -0.627 | M -0.169 | Q -0.948 | W -0.787 | V -0.482 | K -0.892 | T -0.701 | F -0.351
E29: P -0.162 | S -0.539 | A -0.199 | W -0.84 | C -0.394 | R -0.883 | Q -0.367 | G -0.628 | H -0.879 | D -0.074 | L -0.518 | I -0.916 | M -0.225 | T -0.348 | K -0.691
S31: I -0.054 | T 0.047 | N 0.05 | C -0.027 | R -0.137 | F -0.212 | K -0.039 | P -0.733 | H -0.19 | D 0.154 | V -0.021 | G -0.189 | Q -0.038 | M 0.072 | L -0.045
R15: C -0.357 | E -0.354 | H -0.428 | K -0.022 | Q -0.3 | W -0.502 | A -0.38 | D -0.752 | T -0.345 | S -0.335 | I -0.25 | F -0.464 | Y -0.375 | N -0.738 | M -0.177 | P -0.686 | V -0.495 | L -0.512
H26: T 0.154 | E 0.024 | F -0.713 | V -0.039 | Q 0.111 | M -0.182 | C 0.127 | S 0.291 | W -0.281 | G -0.082 | D 0.191 | P 0.134 | Y -0.652 | K 0.138 | L -0.1 | A 0.113 | I -0.088 | N 0.289
A28: R -0.132 | I -0.463 | C -0.351 | T -0.234 | S -0.029 | V -0.169 | D -0.152 | L -0.195 | G -0.166 | K -0.099 | W -0.242 | E -0.078 | Q -0.145
M19: L 0.116 | Q -0.112 | H -0.368 | W -0.326 | S -0.212 | N -0.396 | T -0.338 | R -0.236 | Y -0.459 | E -0.019 | K 0.007 | V -0.091 | G -0.452 | F -0.257 | P -0.785 | C -0.175 | I 0.014 | D -0.463
P23: I -0.568 | W -0.766 | Y -0.862 | V -0.634 | N -0.554 | Q -0.482 | T -0.593 | R -0.669 | A -0.619 | H -0.548 | F -0.97 | D -0.564 | L -0.52 | E -0.554 | M -0.817 | S -0.47
